Measured values: paper PMC5992459, “Novel DNA Aptamers that Bind to Mutant Huntingtin and Modify Its Activity”

B1: MS1 (structured_DNA)
DNA: AGGGGTGGGGAGGGGTGGGGA
B2: MS3 (structured_DNA)
DNA: GGGAGGGAGGGAGGGAGGGAGGGAGGGAGGGAGGGA
B3: MS2 (structured_DNA)
DNA: AGGGGTGGGGAGGGGAGGGGA
B4: MS4 (structured_DNA)
DNA: TGGGGAGGGGAGGGGCGGGGT

Experiments:
[1] = molecular target: endogenous huntingtin from HD60i4 NPC (CAG60/18) (Homo sapiens) (UniProt P42858); test: streptavidin pull-down; details: NPC lysate; ELISA: 10 mM Tris-HCl pH 8.0, 0.15 M NaCl (TBS), 2 mg/mL BSA block, 1 pmol huntingtin/well, 50 pmol biotin-aptamer, 2 h (RT for coating/blocking); caspase-6 …
[2] = molecular target: Q78-huntingtin caspase-6 C-terminal fragment (270 kDa) (Homo sapiens, UniProt P42858 585-3142); test: caspase-6 digestion of complex, anti-biotin immunoblot; ELISA: 10 mM Tris-HCl pH 8.0, 0.15 M NaCl (TBS), 2 mg/mL BSA block, 1 pmol huntingtin/well, 50 pmol biotin-aptamer, 2 h (RT for coating/blocking); caspase-6 mapping: aptamer:huntingtin 10:1, 2 h RT, spin column; SLM: 5:1, 2 h RT; details: protein: recombinant; label: 5'-biotin; intramolecular G4
Q78-huntingtin caspase-6 C-terminal fragment (270 kDa), sequence (P42858 585-3142): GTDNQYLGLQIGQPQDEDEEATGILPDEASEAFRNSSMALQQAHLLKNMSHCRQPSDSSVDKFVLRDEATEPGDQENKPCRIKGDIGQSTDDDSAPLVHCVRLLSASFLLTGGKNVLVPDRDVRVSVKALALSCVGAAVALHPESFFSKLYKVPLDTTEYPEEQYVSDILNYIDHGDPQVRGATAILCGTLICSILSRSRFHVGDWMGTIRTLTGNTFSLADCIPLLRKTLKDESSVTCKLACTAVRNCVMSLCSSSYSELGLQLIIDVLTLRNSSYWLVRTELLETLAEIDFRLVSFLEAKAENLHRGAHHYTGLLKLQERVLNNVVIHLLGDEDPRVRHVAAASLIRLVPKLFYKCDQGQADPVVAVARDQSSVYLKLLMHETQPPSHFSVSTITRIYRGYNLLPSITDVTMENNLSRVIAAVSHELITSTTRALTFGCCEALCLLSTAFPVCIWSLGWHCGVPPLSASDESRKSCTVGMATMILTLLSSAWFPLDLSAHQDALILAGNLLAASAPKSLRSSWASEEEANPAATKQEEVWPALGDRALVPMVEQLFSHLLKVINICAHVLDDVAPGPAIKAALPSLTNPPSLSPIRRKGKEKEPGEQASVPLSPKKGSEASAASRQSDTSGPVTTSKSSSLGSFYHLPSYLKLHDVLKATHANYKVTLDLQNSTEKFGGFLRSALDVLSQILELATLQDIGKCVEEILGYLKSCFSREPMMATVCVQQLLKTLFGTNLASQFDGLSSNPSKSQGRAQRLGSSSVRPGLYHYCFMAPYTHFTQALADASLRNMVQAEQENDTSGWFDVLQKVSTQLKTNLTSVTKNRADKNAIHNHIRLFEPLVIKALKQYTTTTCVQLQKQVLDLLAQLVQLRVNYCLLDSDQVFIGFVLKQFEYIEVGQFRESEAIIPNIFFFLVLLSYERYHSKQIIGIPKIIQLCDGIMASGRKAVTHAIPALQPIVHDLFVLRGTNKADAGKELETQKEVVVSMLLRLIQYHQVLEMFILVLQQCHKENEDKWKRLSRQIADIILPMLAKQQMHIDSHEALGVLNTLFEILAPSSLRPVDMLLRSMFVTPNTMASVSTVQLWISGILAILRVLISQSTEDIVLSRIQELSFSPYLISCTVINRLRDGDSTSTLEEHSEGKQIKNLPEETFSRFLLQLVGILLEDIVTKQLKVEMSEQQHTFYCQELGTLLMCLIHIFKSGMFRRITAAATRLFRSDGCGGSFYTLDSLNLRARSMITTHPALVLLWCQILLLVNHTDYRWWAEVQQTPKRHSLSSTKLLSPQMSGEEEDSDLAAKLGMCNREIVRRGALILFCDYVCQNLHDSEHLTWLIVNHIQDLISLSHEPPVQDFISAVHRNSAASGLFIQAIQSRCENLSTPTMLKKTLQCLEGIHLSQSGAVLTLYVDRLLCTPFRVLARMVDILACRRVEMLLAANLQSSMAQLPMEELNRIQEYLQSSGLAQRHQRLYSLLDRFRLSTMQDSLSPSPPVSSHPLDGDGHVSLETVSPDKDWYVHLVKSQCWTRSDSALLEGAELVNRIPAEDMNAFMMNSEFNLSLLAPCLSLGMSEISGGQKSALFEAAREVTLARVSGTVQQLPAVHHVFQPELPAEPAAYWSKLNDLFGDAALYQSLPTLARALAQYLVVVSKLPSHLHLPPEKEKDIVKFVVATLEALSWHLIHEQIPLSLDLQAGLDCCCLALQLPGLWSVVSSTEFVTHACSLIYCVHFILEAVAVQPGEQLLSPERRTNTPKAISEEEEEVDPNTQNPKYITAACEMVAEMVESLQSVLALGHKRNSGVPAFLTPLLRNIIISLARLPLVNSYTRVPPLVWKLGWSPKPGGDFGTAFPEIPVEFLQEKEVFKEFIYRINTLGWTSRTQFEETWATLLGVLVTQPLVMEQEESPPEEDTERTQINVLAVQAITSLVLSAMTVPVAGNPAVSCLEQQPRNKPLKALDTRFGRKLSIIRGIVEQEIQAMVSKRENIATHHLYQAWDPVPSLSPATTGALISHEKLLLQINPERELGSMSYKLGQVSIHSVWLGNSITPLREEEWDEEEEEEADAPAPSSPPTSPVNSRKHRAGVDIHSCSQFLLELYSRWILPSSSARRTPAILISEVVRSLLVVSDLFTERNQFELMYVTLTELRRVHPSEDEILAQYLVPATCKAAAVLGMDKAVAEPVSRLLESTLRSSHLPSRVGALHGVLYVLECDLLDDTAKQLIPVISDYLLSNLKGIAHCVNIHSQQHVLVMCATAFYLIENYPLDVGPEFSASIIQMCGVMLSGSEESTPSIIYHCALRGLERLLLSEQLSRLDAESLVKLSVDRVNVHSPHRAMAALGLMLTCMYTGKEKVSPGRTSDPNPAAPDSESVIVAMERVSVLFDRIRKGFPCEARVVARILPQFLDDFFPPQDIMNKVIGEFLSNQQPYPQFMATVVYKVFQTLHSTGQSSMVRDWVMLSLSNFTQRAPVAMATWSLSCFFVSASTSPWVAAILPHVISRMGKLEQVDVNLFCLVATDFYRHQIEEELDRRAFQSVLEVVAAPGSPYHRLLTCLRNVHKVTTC

Molecule | binding signal (fold vs HD17m8) [1] | binding result [2]
GGGAGGGAGGGAGGGAGGGAGGGAGGGAGGGAGGGA [MS3] | 3.6 | –
B1 | – | binds
B2 | – | binds
B3 | – | binds
B4 | – | binds
